These results are taken from patent publication US20230090487A1 (published 2023).

Assay [1] has as its target T1, human IgE (myeloma IgE) (human, UniProt P01854-1 1-428).
T1 construct: Myeloma IgE coupled by amine coupling to a CM5 chip for Biacore; Also used to sensitize human FcεRIα-expressing 3D10 cells; also called PS IgE
The assay can be described thus: SPR, Biacore T2000, myeloma IgE amine-coupled to CM5 chip, antibody in solution. Here is the method: (§1) The complementary determining region (CDR) sequences and the specificity-determining residues (SDR) of each heavy chain variable (VH) and light chain variable (VL) regions were engrafted into the framework (FR) regions of the most homologous human germline sequences. All the recombinant mAbs were transiently expressed in 293 cells in small scale (50 ml transfection volume) and purified by protein A affinity column for downstream application. The humanized mAbs not expressing or expressing <1 μg/ml recombinant antibody were eliminated. The affinity of humanized LAAIGE (hLAAIGE) to […] was determined by the surface plasmon resonance using Biacore T2000 instrument (Biacore AB, Uppsala, Sweden) with a CM5 sensor chip coupled with myeloma IgE by amine coupling. The purified hLAAIGEs were dissolved in HBS-EP assay buffer containing 0.15 M NaCl, 10 mM HEPES, pH 7.4, 3 mM EDTA, and 0.005% polysorbate 20. The solutions traversed the sensors at a flow rate of 50 μl/minute for binding analysis. Binding results were expressed in resonance units. Kinetic studies were analyzed with BIAevaluation Software Version 4.1. […] The binding of the selected hLAAIGE to the cell surface-bound IgE was confirmed using the human FcεRIα expressing 3D10 cells sensitized with myeloma IgE.
A general note: In SPR one partner is held on a chip, and binding of the other changes the refractive index at the surface.

The target in assay [2] is T1, human IgE (myeloma IgE). In words: SPR, Biacore T2000; range told of the chosen antibodies, this end tied to S91 by paragraph 147. Here is the method:
as §1

Assay [3] addresses T1, human IgE (myeloma IgE). In words: SPR (Biacore method); range told of the group, this end tied to H6.2 by paragraph 147. On the procedure: as §1
Assay [4] deals with T1, human IgE (myeloma IgE). The assay can be described thus: SPR (Biacore method); range told of the group, this end tied to E14 by paragraph 147. On the procedure: as §1
Assay [5] deals with T1, human IgE (myeloma IgE). In words: binding affinity for human IgE; method not stated for the founders.

Residue numbers refer to the chain shown, from its start.

One may read the Kd as the concentration at which binding is half-saturated.

T1 sequence (P01854 other isoform, or with tags, fused parts or gaps): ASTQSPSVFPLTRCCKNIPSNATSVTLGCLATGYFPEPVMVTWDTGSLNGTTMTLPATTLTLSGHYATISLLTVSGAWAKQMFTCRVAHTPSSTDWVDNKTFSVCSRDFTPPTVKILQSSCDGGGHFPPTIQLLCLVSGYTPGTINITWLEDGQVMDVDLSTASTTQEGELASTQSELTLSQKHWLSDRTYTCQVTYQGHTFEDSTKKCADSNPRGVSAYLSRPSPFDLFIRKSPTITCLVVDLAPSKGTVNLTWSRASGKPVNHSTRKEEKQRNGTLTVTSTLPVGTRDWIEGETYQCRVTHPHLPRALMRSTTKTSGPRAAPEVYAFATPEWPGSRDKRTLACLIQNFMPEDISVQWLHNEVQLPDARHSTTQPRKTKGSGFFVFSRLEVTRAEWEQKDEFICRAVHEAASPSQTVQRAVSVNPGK

B1: hLAAIGE S91 (antibody, human IgG1, lambda, V domains shown)
VH: QVQLVQSGAEVKKPGASVKVSCKASGYTFTSYGISWVRQAPGQGLEWMGWISAYNGNTNYAQKLQGRVTMTTDTSTSTAYMELRSLRSDDTAVYYCARVSSWPYWYFDLWGRGTLVTVSS
VL: QSAVTQPPSASGSPGQSVTISCTGTSSDVGAYDYVSWYQQHPGKAPKLMIYEVSKRPSGVPDRFSGSKSGNTASLTVSGLQAEDEADYYCSSYAGRVDVFGGGTKLTVLG
notes: The entries are labelled 'VH' and 'VL' but are full heavy (human IgG1) and lambda light chains; Humanized, derived from Founder F11
Regarding B1, the Kd with human IgE (myeloma IgE) [1] came out at 7410 nM; with human IgE (myeloma IgE) [2] it was 7000 nM.

B2: hLAAIGE H6.2 (antibody, human IgG1, lambda, V domains shown)
VH: QVQLGQSGGGVVQPGRSLRLSCAASGFTFSNYLIEWVRQAPGKGLEWVAVINPGSGFTKYNEKFKQRFTISRDNSKNTLYLQMNSLRAEDTAVYYCAREDVYSWFAYWGQGTLVTVSA
VL: QSALTQPASVSGSPGQSITISCTRASESVDSYGNSFMHQHHPGKAPKLMIYEVRTSNLESSNRFSGSKSGNTASLTISGLQAEDEADYYCSSQQSYEDPFTFGSGTKLGQPK
notes: The entries are labelled 'VH' and 'VL' but are full heavy (human IgG1) and lambda light chains; Humanized, derived from Founder P6.2
Turning to B2, the Kd with human IgE (myeloma IgE) [3] was 50000 nM; with human IgE (myeloma IgE) [1], ~50000 nM.

B3: hLAAIGE E14 (antibody, human IgG1, kappa, V domains shown)
VH: QVQLVQSGSELKKPGASVKVSCKASGYTFTNYGMNWVRQAPGQGLEWMGWINTYTGEPTYADDFKGRFVFSLDTSVSTAYLQISSLKAEDTAVYYCARGAASHTMDYWGQGTTVTVSS
VL: DIVMTQSPDSLAVSLGERATINCRASQSVSTSAHSYMHWYQQKPGQPPKLLIYYASNLESGVPDRFSGSGSGTDFTLTISSLQAEDVAVYYCQHSWEIPWTFGQGTKLEIKR
notes: The entries are labelled 'VH' and 'VL' but are full heavy (human IgG1) and kappa light chains; Humanized, derived from Founder E17
For B3, the Kd turned out to be 70 nM with human IgE (myeloma IgE) [4] and 67.2 nM in the assay with human IgE (myeloma IgE) [1].

B4: hLAAIGE E17 (antibody, human IgG1, kappa, V domains shown)
VH: B3 VH
VL: B3 VL with A33S, S35A
notes: Humanized clone E17, a different molecule from the mouse Founder E17; The entries are labelled 'VH' and 'VL' but are full heavy (human IgG1) and kappa light chains
B4 came in with a Kd in the assay with human IgE (myeloma IgE) [1] of 140 nM.

B5: hLAAIGE E23 (antibody, human IgG1, kappa, V domains shown)
VH: B3 VH
VL: B3 VL with A33S, H34Y, E59K, S60A
notes: as for B3
B5 yielded a Kd with human IgE (myeloma IgE) [1] of 109 nM.

B6: hLAAIGE E59 (antibody, human IgG1, kappa, V domains shown)
VH: B3 VH
VL: B3 VL with A33S
notes: Humanized, derived from Founder E17; Expressed in 293 cells
Molecule B6 gave a Kd in the assay with human IgE (myeloma IgE) [1] of 164 nM.

B7: Founder P6.2 (low affinity anti-human IgE founder mouse mAb) (antibody, V domains shown)
VH: QVQLQQSGAELVRPGTSVKVSCKASGYAFTNYLIEWVKQRPGQGLEWIGVINPGSGFTKYNEKFKGKATLTADKSSSTAYMHLSSLTSDDSAVYFCAREDVYSWFAYWGQGTLVTVSA
VL: DIVLTQSPASLAVSLGQRATISCRASESVDSYGNSFMHWYQQKPGQPPKLLIYRTSNLESGIPARFSGSGSRTDFTLTINPVEADDVATYFCQQSYEDPFTFGSGTKLEIK
notes: Mouse hybridoma mAb
Turning to B7, in the assay with human IgE (myeloma IgE) [5], the Kd is ~2540 nM.
